In patent EP4711384A1 (WIO Bioscience Co., Ltd., dated 2026):
Several values for one entry are separate records, joined by “and”; a condition that tells them apart may be missing. Identical values can stand only once.

T1: human IL-18R1 and IL-18RAP on IL-18 Reporter HEK 293 Cells (human, UniProt Q13478 19-541; O95256 20-599)
T1 sequence (looked up) 1: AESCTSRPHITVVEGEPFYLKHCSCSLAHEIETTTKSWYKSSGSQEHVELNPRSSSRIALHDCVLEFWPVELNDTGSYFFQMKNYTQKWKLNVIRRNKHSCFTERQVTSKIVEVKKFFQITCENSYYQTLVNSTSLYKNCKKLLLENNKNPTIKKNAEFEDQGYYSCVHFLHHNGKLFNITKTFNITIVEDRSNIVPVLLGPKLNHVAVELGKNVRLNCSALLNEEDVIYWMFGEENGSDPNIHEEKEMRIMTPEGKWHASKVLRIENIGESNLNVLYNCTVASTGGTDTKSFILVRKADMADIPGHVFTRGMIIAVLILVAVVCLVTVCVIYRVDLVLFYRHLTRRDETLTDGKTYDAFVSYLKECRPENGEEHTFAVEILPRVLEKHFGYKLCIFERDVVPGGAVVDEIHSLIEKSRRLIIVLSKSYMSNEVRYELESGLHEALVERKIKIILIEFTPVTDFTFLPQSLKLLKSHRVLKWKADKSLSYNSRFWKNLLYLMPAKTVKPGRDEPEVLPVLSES
T1 sequence (looked up) 2: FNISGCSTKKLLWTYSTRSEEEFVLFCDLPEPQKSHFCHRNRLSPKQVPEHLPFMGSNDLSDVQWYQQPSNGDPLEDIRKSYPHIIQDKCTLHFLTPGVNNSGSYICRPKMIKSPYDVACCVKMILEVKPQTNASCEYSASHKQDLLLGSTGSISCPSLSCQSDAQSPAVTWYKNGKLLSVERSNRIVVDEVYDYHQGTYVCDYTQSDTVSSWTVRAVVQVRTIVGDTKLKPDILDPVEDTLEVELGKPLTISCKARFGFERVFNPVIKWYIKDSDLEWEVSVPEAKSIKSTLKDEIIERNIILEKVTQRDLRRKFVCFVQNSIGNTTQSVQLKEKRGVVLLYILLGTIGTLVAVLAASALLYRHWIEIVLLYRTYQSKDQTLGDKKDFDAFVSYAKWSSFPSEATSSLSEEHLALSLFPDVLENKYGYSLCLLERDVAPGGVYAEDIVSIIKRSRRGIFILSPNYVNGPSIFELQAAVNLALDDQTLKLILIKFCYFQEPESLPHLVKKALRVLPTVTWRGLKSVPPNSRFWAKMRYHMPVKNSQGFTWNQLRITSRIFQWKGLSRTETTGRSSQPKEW

B1: hzWio-02-01-Hm17 (bispecific antibody)
chain: EVQLVESGGGLVQPGGSLRLSCAASGTAYDNACMGWFRQAPGKEREGVASIHLRDRTYHADSVKGRFTISRDNSKNTLYLQMNSLRAEDTAVYYCASSNICNALNLQGNTYWGQGTLVTVSSGGGGSEVQLLESGGGLVQPGGSLRLSCAASGYTYGPYCMGWFRQAPGKEREGVAAVGGDARTWYGNSVKGRFTISRDNSKNTLYLQMNSLRAEDTAVYYCAADFDRTVCSDDIYDYTYRGQGTLVTVSSHHHHHH
B2: hzWio-02-01-Hm18 (bispecific antibody)
chain: EVQLVESGGGLVQPGGSLRLSCAASGTAYDNACMGWFRQAPGKEREGVASIHLRDRTYYHDSVKGRFTISRDNSKNTLYLQMNSLRAEDTAVYYCASSNICNALNLQGNTYWGQGTLVTVSSGGGGSEVQLLESGGGLVQPGGSLRLSCAASGYTYGPYCMGWFRQAPGKEREGVAAVGGDARTWYGNSVKGRFTISRDNSKNTLYLQMNSLRAEDTAVYYCAADFDRTVCSDDIYDYTYRGQGTLVTVSSHHHHHH
B3: hzWio-02-01-Hm19 (bispecific antibody)
chain: EVQLVESGGGLVQPGGSLRLSCAASGTAYDNACMGWFRQAPGKEREGVASIHLRDRTYYAHSVKGRFTISRDNSKNTLYLQMNSLRAEDTAVYYCASSNICNALNLQGNTYWGQGTLVTVSSGGGGSEVQLLESGGGLVQPGGSLRLSCAASGYTYGPYCMGWFRQAPGKEREGVAAVGGDARTWYGNSVKGRFTISRDNSKNTLYLQMNSLRAEDTAVYYCAADFDRTVCSDDIYDYTYRGQGTLVTVSSHHHHHH
B4: hzWio-02-01-Hm20 (bispecific antibody)
chain: EVQLVESGGGLVQPGGSLRLSCAASGTAYDNACMGWFRQAPGKEREGVASIHLRDRTYYADHVKGRFTISRDNSKNTLYLQMNSLRAEDTAVYYCASSNICNALNLQGNTYWGQGTLVTVSSGGGGSEVQLLESGGGLVQPGGSLRLSCAASGYTYGPYCMGWFRQAPGKEREGVAAVGGDARTWYGNSVKGRFTISRDNSKNTLYLQMNSLRAEDTAVYYCAADFDRTVCSDDIYDYTYRGQGTLVTVSSHHHHHH
B5: hzWio-02-01-Hm21 (bispecific antibody)
chain: EVQLVESGGGLVQPGGSLRLSCAASGTAYDNACMGWFRQAPGKEREGVASIHLRDRTYYADSHKGRFTISRDNSKNTLYLQMNSLRAEDTAVYYCASSNICNALNLQGNTYWGQGTLVTVSSGGGGSEVQLLESGGGLVQPGGSLRLSCAASGYTYGPYCMGWFRQAPGKEREGVAAVGGDARTWYGNSVKGRFTISRDNSKNTLYLQMNSLRAEDTAVYYCAADFDRTVCSDDIYDYTYRGQGTLVTVSSHHHHHH
B6: hzWio-02-01-Hm22 (bispecific antibody)
chain: EVQLVESGGGLVQPGGSLRLSCAASGTAYDNACMGWFRQAPGKEREGVASIHLRDRTYYADSVHGRFTISRDNSKNTLYLQMNSLRAEDTAVYYCASSNICNALNLQGNTYWGQGTLVTVSSGGGGSEVQLLESGGGLVQPGGSLRLSCAASGYTYGPYCMGWFRQAPGKEREGVAAVGGDARTWYGNSVKGRFTISRDNSKNTLYLQMNSLRAEDTAVYYCAADFDRTVCSDDIYDYTYRGQGTLVTVSSHHHHHH
B7: hzWio-02-01-Hm23 (bispecific antibody)
chain: EVQLVESGGGLVQPGGSLRLSCAASGTAYDNACMGWFRQAPGKEREGVASIHLRDRTYYADSVKHRFTISRDNSKNTLYLQMNSLRAEDTAVYYCASSNICNALNLQGNTYWGQGTLVTVSSGGGGSEVQLLESGGGLVQPGGSLRLSCAASGYTYGPYCMGWFRQAPGKEREGVAAVGGDARTWYGNSVKGRFTISRDNSKNTLYLQMNSLRAEDTAVYYCAADFDRTVCSDDIYDYTYRGQGTLVTVSSHHHHHH
B8: hzWio-02-01-Hm24 (bispecific antibody)
chain: EVQLVESGGGLVQPGGSLRLSCAASGTAYDNACMGWFRQAPGKEREGVASIHLRDRTYYADSVKGRFTISRDNSKNTLYLQMNSLRAEDTAVYYCASHNICNALNLQGNTYWGQGTLVTVSSGGGGSEVQLLESGGGLVQPGGSLRLSCAASGYTYGPYCMGWFRQAPGKEREGVAAVGGDARTWYGNSVKGRFTISRDNSKNTLYLQMNSLRAEDTAVYYCAADFDRTVCSDDIYDYTYRGQGTLVTVSSHHHHHH
B9: hzWio-02-01-Hm25 (bispecific antibody)
chain: EVQLVESGGGLVQPGGSLRLSCAASGTAYDNACMGWFRQAPGKEREGVASIHLRDRTYYADSVKGRFTISRDNSKNTLYLQMNSLRAEDTAVYYCASSHICNALNLQGNTYWGQGTLVTVSSGGGGSEVQLLESGGGLVQPGGSLRLSCAASGYTYGPYCMGWFRQAPGKEREGVAAVGGDARTWYGNSVKGRFTISRDNSKNTLYLQMNSLRAEDTAVYYCAADFDRTVCSDDIYDYTYRGQGTLVTVSSHHHHHH
B10: hzWio-02-01-Hm26 (bispecific antibody)
chain: EVQLVESGGGLVQPGGSLRLSCAASGTAYDNACMGWFRQAPGKEREGVASIHLRDRTYYADSVKGRFTISRDNSKNTLYLQMNSLRAEDTAVYYCASSNHCNALNLQGNTYWGQGTLVTVSSGGGGSEVQLLESGGGLVQPGGSLRLSCAASGYTYGPYCMGWFRQAPGKEREGVAAVGGDARTWYGNSVKGRFTISRDNSKNTLYLQMNSLRAEDTAVYYCAADFDRTVCSDDIYDYTYRGQGTLVTVSSHHHHHH
B11: hzWio-02-01-Hm27 (bispecific antibody)
chain: EVQLVESGGGLVQPGGSLRLSCAASGTAYDNACMGWFRQAPGKEREGVASIHLRDRTYYADSVKGRFTISRDNSKNTLYLQMNSLRAEDTAVYYCASSNICHALNLQGNTYWGQGTLVTVSSGGGGSEVQLLESGGGLVQPGGSLRLSCAASGYTYGPYCMGWFRQAPGKEREGVAAVGGDARTWYGNSVKGRFTISRDNSKNTLYLQMNSLRAEDTAVYYCAADFDRTVCSDDIYDYTYRGQGTLVTVSSHHHHHH
B12: hzWio-02-01-Hm28 (bispecific antibody)
chain: EVQLVESGGGLVQPGGSLRLSCAASGTAYDNACMGWFRQAPGKEREGVASIHLRDRTYYADSVKGRFTISRDNSKNTLYLQMNSLRAEDTAVYYCASSNICNHLNLQGNTYWGQGTLVTVSSGGGGSEVQLLESGGGLVQPGGSLRLSCAASGYTYGPYCMGWFRQAPGKEREGVAAVGGDARTWYGNSVKGRFTISRDNSKNTLYLQMNSLRAEDTAVYYCAADFDRTVCSDDIYDYTYRGQGTLVTVSSHHHHHH
B13: hzWio-02-01-Hm29 (bispecific antibody)
chain: EVQLVESGGGLVQPGGSLRLSCAASGTAYDNACMGWFRQAPGKEREGVASIHLRDRTYYADSVKGRFTISRDNSKNTLYLQMNSLRAEDTAVYYCASSNICNAHNLQGNTYWGQGTLVTVSSGGGGSEVQLLESGGGLVQPGGSLRLSCAASGYTYGPYCMGWFRQAPGKEREGVAAVGGDARTWYGNSVKGRFTISRDNSKNTLYLQMNSLRAEDTAVYYCAADFDRTVCSDDIYDYTYRGQGTLVTVSSHHHHHH
B14: hzWio-02-01-Hm30 (bispecific antibody)
chain: EVQLVESGGGLVQPGGSLRLSCAASGTAYDNACMGWFRQAPGKEREGVASIHLRDRTYYADSVKGRFTISRDNSKNTLYLQMNSLRAEDTAVYYCASSNICNALHLQGNTYWGQGTLVTVSSGGGGSEVQLLESGGGLVQPGGSLRLSCAASGYTYGPYCMGWFRQAPGKEREGVAAVGGDARTWYGNSVKGRFTISRDNSKNTLYLQMNSLRAEDTAVYYCAADFDRTVCSDDIYDYTYRGQGTLVTVSSHHHHHH
B15: hzWio-02-01-Hm31 (bispecific antibody)
chain: EVQLVESGGGLVQPGGSLRLSCAASGTAYDNACMGWFRQAPGKEREGVASIHLRDRTYYADSVKGRFTISRDNSKNTLYLQMNSLRAEDTAVYYCASSNICNALNHQGNTYWGQGTLVTVSSGGGGSEVQLLESGGGLVQPGGSLRLSCAASGYTYGPYCMGWFRQAPGKEREGVAAVGGDARTWYGNSVKGRFTISRDNSKNTLYLQMNSLRAEDTAVYYCAADFDRTVCSDDIYDYTYRGQGTLVTVSSHHHHHH
B16: hzWio-02-01-Hm32 (bispecific antibody)
chain: EVQLVESGGGLVQPGGSLRLSCAASGTAYDNACMGWFRQAPGKEREGVASIHLRDRTYYADSVKGRFTISRDNSKNTLYLQMNSLRAEDTAVYYCASSNICNALNLHGNTYWGQGTLVTVSSGGGGSEVQLLESGGGLVQPGGSLRLSCAASGYTYGPYCMGWFRQAPGKEREGVAAVGGDARTWYGNSVKGRFTISRDNSKNTLYLQMNSLRAEDTAVYYCAADFDRTVCSDDIYDYTYRGQGTLVTVSSHHHHHH

What follows are binders tested against T1, human IL-18R1 and IL-18RAP on IL-18 … (assay: cell-based or functional assay).

Compared with B1, B2 is 2.1-fold lower in EC50: 1.47 ng/mL for the first, 0.696 ng/mL for the second.

B3 and B4 are within 1.5-fold of each other in EC50: 0.84 ng/mL for the first, 0.582 ng/mL for the second.

Compared with B5, B6 is 12-fold lower in EC50: 2.12 ng/mL for the first, 0.182 ng/mL for the second.

First: B7
Second: B8
The EC50 of the first is 8.3-fold lower: 0.238 ng/mL for the first, 1.97 ng/mL for the second.

Going from B9 to B10, the EC50 rises from 0.04 ng/mL to 0.301 ng/mL (7.5-fold).

B11 and B12 are within 1.5-fold of each other in EC50: 0.433 ng/mL for the first, 0.42 ng/mL for the second.

First: B14
Second: B15
The EC50 of the first is 3.7-fold higher: 28.7 ng/mL for the first, 7.75 ng/mL for the second.

For B16, the EC50 was 10.9 ng/mL.

Compared with B1, B2 is higher in Top530nm: 1 for the first, 1.07 for the second.

First: B3
Second: B4
The Top530nm of the first is lower: 0.738 for the first, 2.75 for the second.

Compared with B5, B6 is lower in Top530nm: 1.12 for the first, 0.773 for the second.

Compared with B7, B8 is lower in Top530nm: 0.794 for the first, 0.774 for the second.

Going from B9 to B10, the Top530nm rises from 0.738 to 0.764.

First: B11
Second: B12
The Top530nm of the first is lower: 0.773 for the first, 0.821 for the second.

Going from B14 to B15, the Top530nm rises from 0.349 to 1.05.

B16 gave a Top530nm of 1.09.

With B13 the EC50 was 0.67 ng/mL and 1.49 ng/mL.
